This passage reports Kd results from the Immune Epitope Database (IEDB).

The target of test [1] is HLA-A*02:01. Briefly: IEDB peptide-MHC binding, purified MHC/competitive/radioactivity; filed as Kd, often an IC50 or EC50 that approximates it; ≥ and ≤ were set here for values at or beyond the usual limits of such assays.
The target in test [2] is HLA-B*07:02. Described as above.
The next test deals with HLA-B*51:01. The test is described as above. The conditions noted are these: source organism: Dengue virus 2 16681-PDK53.
For test [3], the target named is HLA-B*40:01. Described as above.
A further test addresses HLA-B*44:03. The test is described as above.
In test [4] the target is HLA-B*44:02. Described as above.
The target in another test is HLA-B*39:01. The experiment in a line: IEDB peptide-MHC binding, purified MHC/competitive/fluorescence; filed as Kd, often an IC50 or EC50 that approximates it; ≥ and ≤ were set here for values at or beyond the usual limits of such assays.
Another test addresses HLA-A*01:01. Briefly: IEDB peptide-MHC binding, purified MHC/direct/fluorescence; filed as Kd, often an IC50 or EC50 that approximates it; ≥ and ≤ were set here for values at or beyond the usual limits of such assays.
Test [5] concerns the target HLA-A*02:01. The description is as above.
The next test concerns the target HLA-A*03:01. The test is described as above.
The next test has as its target HLA-A*11:01. Described as above.
In a further test the target is HLA-A*24:03. The description is as above.
The next test deals with HLA-A*26:01. Described as above.
The next test has as its target HLA-A*69:01. The test is described as above.
In test [6] the target is HLA-B*07:02. Described as above.
A further test has as its target HLA-B*08:01. The description is as above.
In test [7] the target is HLA-B*15:01. The test is described as above.
Another test concerns the target HLA-B*27:05. The description is as above.
Test [8] has as its target HLA-B*40:01. The description is as above.
Test [9] concerns the target HLA-B*44:02. Described as above.
In a further test the target is HLA-B*58:01. The test is described as above.
In a further test the target is HLA-A*31:01. Described as above.
A further test addresses HLA-A*30:01. The experiment in a line: IEDB peptide-MHC binding, purified MHC/competitive/radioactivity; filed as Kd, often an IC50 or EC50 that approximates it; ≥ and ≤ were set here for values at or beyond the usual limits of such assays. Particulars: source organism: Dengue virus 1 Brazil/97-11/1997.
The target of the next test is HLA-A*23:01. Described as above. Particulars: source organism: Dengue virus 1 Brazil/97-11/1997.
The next test addresses HLA-A*24:02. Described as above. The conditions noted are these: source organism: Dengue virus 1 Brazil/97-11/1997.
The next test has as its target HLA-B*35:01. Described as above. Particulars: source organism: Dengue virus 1 Brazil/97-11/1997.
The target of another test is HLA-B*53:01. The description is as above. Particulars: source organism: Dengue virus 1 Brazil/97-11/1997.
The target of the next test is HLA-A*02:02. The test is described as above. The conditions noted are these: source organism: Homo sapiens.
In test [10] the target is HLA-B*15:01. The experiment in a line: IEDB peptide-MHC binding, purified MHC/competitive/fluorescence; filed as Kd, often an IC50 or EC50 that approximates it; ≥ and ≤ were set here for values at or beyond the usual limits of such assays. The conditions noted are these: source organism: Yersinia pestis Nepal516.
Where [11] appears, read: source organism: Triticum aestivum.
Where [12] appears, read: source organism: Dengue virus 2 Jamaica/1409/1983.
Where [13] appears, read: source organism: Dengue virus 4 Dominica/814669/1981.
Where [14] appears, read: source organism: Dengue virus 3 Martinique/1243/1999.
Setting [15] is: source organism: Dengue virus 1 Brazil/97-11/1997.
The mark [16] stands for this setting: source organism: Vibrio cholerae.
[17] abbreviates: source organism: Giardia intestinalis.
Setting [18] is: source organism: Dengue virus 4 Philippines/H241/1956.
Setting [19] is: source organism: Rickettsia prowazekii.
[20] abbreviates: source organism: Salmonella enterica.
Where [21] appears, read: source organism: Salmonella enterica subsp. enterica serovar Typhi.

For the sequence AIHNVVHAI, the Kd with HLA-A*02:01 [1] (setting [11]) was found to be 0.166 µM.
As for SPIIDKKGKV, the dissociation constant Kd with HLA-B*07:02 [2] (source organism: Dengue virus 2 16681-PDK53) is 0.582 µM; with HLA-B*51:01 it was no less than 69.6 µM.
On to ELCCQHLWQI, for which the equilibrium dissociation constant (Kd) in the test with HLA-A*02:01 [1] (setting [11]) worked out at 5.55 µM.
In the case of LVMKDGRVL, the Kd with HLA-B*07:02 [2] (setting [12]) is 0.00107 µM.
In the case of EEIDKKDGDL, the dissociation constant (Kd) in the test with HLA-B*40:01 [3] (setting [13]) amounted to 1.89 µM; with HLA-B*44:03 (setting [13]), 0.421 µM.
For the sequence WENVPYLGK, the Kd in the test with HLA-B*44:02 [4] (setting [14]) turned out to be 8.42 µM.
Turning to RLGLSRPLL, the Kd in the test with HLA-A*02:01 [1] (source organism: Hepatitis B virus subtype ayw) was no less than 5 µM.
Turning to IEVKTCIWPK, the Kd with HLA-B*40:01 [3] (setting [15]) is 2.91 µM.
Sequence YNAELLVAL registered a Kd with HLA-B*39:01 (source organism: Influenza A virus (A/gray teal/Australia/2/1979(H4N4))) of 0.0009 µM.
Consider SVMPAWQEK, for which the Kd with HLA-A*01:01 (setting [16]) is no less than 20 µM; with HLA-A*02:01 [5] (setting [16]), no less than 20 µM; with HLA-A*03:01 (setting [16]), 0.0741 µM; in the test with HLA-A*11:01 (setting [16]) it was 0.00501 µM; with HLA-A*24:03 (setting [16]), 10.3 µM; with HLA-A*26:01 (setting [16]), no less than 20 µM. Moreover, the dissociation constant (Kd) with HLA-A*69:01 (setting [16]), in the test with HLA-B*07:02 [6] (setting [16]), with HLA-B*08:01 (setting [16]), in the test with HLA-B*15:01 [7] (setting [16]), in the test with HLA-B*27:05 (setting [16]) and with HLA-B*40:01 [8] (setting [16]) was no less than 20 µM in each case. The Kd in the test with HLA-B*44:02 [9] (setting [16]) and with HLA-B*58:01 (setting [16]) was no less than 20 µM throughout.
Turning to MEVTAKWLWG, in the test with HLA-B*44:03 (setting [15]), the Kd stood at 0.128 µM.
Regarding THEILWPSF, the dissociation constant (Kd) with HLA-B*39:01 (source organism: Shewanella putrefaciens CN-32) stood at 2.48 µM.
GYTPGQQFY: the Kd is no less than 20 µM with HLA-A*02:01 [5] (setting [17]); no less than 20 µM in the test with HLA-A*03:01 (setting [17]); no less than 20 µM in the test with HLA-A*11:01 (setting [17]); 5.42 µM with HLA-A*24:03 (setting [17]); no less than 20 µM with HLA-A*26:01 (setting [17]); no less than 20 µM with HLA-A*31:01 (setting [17]). In addition, the equilibrium dissociation constant (Kd) with HLA-A*69:01 (setting [17]), with HLA-B*07:02 [6] (setting [17]), in the test with HLA-B*08:01 (setting [17]), with HLA-B*15:01 [7] (setting [17]), with HLA-B*27:05 (setting [17]) and with HLA-B*40:01 [8] (setting [17]) was no less than 20 µM each time. Besides, the equilibrium dissociation constant (Kd) with HLA-B*44:02 [9] (setting [17]) and in the test with HLA-B*58:01 (setting [17]) was no less than 20 µM each time.
In the case of RSRWSRKML, the Kd with HLA-A*30:01 was determined as 0.0904 µM; with HLA-B*07:02 [2] (setting [15]), 0.0931 µM.
VEITALILGA: the Kd with HLA-B*40:01 [3] (setting [18]) was determined as 0.842 µM.
ILMDSIFVST: the dissociation constant Kd with HLA-B*07:02 [2] (source organism: Vaccinia virus Copenhagen) was no less than 69.6 µM.
For the sequence RPMFAVGLLF, the Kd with HLA-A*23:01 came out at 0.0339 µM; in the test with HLA-A*24:02, 0.416 µM; with HLA-B*07:02 [2] (setting [15]), 0.0105 µM; with HLA-B*35:01, 0.919 µM; with HLA-B*53:01, 0.0935 µM.
For IYSAEFKNY, the dissociation constant Kd is no less than 20 µM in the test with HLA-A*01:01 (setting [19]); no less than 20 µM in the test with HLA-A*02:01 [5] (setting [19]); no less than 20 µM in the test with HLA-A*03:01 (setting [19]); no less than 20 µM in the test with HLA-A*11:01 (setting [19]); 1.41 µM with HLA-A*24:03 (setting [19]); no less than 20 µM with HLA-A*26:01 (setting [19]). The Kd with HLA-A*31:01 (setting [19]) was no less than 20 µM; with HLA-A*69:01 (setting [19]), no less than 20 µM; with HLA-B*07:02 [6] (setting [19]), no less than 20 µM; with HLA-B*08:01 (setting [19]), no less than 20 µM; with HLA-B*15:01 [7] (setting [19]) it was 20 µM; with HLA-B*27:05 (setting [19]) it was no less than 20 µM. Besides, the Kd with HLA-B*40:01 [8] (setting [19]), with HLA-B*44:02 [9] (setting [19]) and with HLA-B*58:01 (setting [19]) was no less than 20 µM in each case.
Consider KELKCGSGIF, for which the dissociation constant Kd with HLA-B*44:02 [4] (setting [12]) turned out to be 0.0336 µM.
In the case of IEQMANGIAL, the dissociation constant (Kd) with HLA-B*40:01 [3] (setting [14]) amounted to 0.00257 µM.
As to RPQLGVGDV, the Kd with HLA-A*01:01 (setting [20]) is no less than 20 µM; in the test with HLA-A*02:01 [5] (setting [20]), no less than 20 µM; in the test with HLA-A*03:01 (setting [20]), no less than 20 µM; in the test with HLA-A*11:01 (setting [20]), no less than 20 µM; with HLA-A*24:03 (setting [21]), 6.18 µM; with HLA-A*26:01 (setting [20]) it was no less than 20 µM. For the same sequence, the Kd with HLA-A*31:01 (setting [20]) was no less than 20 µM; in the test with HLA-A*69:01 (setting [20]), no less than 20 µM; in the test with HLA-B*07:02 [6] (setting [21]) it was 0.38 µM; with HLA-B*08:01 (setting [20]) it was no less than 20 µM; in the test with HLA-B*15:01 [7] (setting [20]), no less than 20 µM; with HLA-B*27:05 (setting [20]), no less than 20 µM. The Kd in the test with HLA-B*40:01 [8] (setting [20]), in the test with HLA-B*44:02 [9] (setting [20]) and with HLA-B*58:01 (setting [20]) was no less than 20 µM in each case.
With SISGVLWQV, the Kd in the test with HLA-A*02:01 [1] (source organism: Hepatitis C virus subtype 2b) is 0.036 µM.
Take LLMWITQCFL: in the test with HLA-A*02:01 [1] (source organism: Homo sapiens), the dissociation constant Kd turned out to be 0.043 µM.
SGASTSQETW: the Kd in the test with HLA-B*44:02 [4] (setting [15]) was found to be 10.9 µM.
Take REWCFTGERN: the Kd with HLA-B*40:01 [3] (setting [18]) was 0.502 µM.
Consider GEFGKAKGS, for which the Kd in the test with HLA-B*44:03 (setting [12]) came to 4.16 µM.
As for GIFEDRAPV, the dissociation constant (Kd) with HLA-A*02:01 [1] (source organism: Human alphaherpesvirus 1 strain 17) worked out at 0.5 µM.
For the sequence KLEEEQIIL, the values for the Kd in the test with HLA-A*02:01 [1] (source organism: Homo sapiens) and in the test with HLA-A*02:02 were 0.0721 µM and 0.0735 µM, respectively.
For LTLTNTSII, the Kd with HLA-A*02:01 [1] (source organism: Lassa virus Josiah) is 6.25 µM.
The sequence TEYKRVMTF yielded a Kd in the test with HLA-B*15:01 [10] of 0.767 µM.
For RAAGLQDCTM, the Kd with HLA-A*02:01 [1] (source organism: Hepatitis C virus (isolate 1)) is no less than 50 µM.
Consider ELSGYCSNI, for which the Kd with HLA-A*02:01 [1] (source organism: Lassa virus GA391) stood at 12.5 µM.
Regarding FEATARGARR, the dissociation constant Kd in the test with HLA-B*40:01 [3] (setting [15]) is 1.9 µM.
On the same count and under the same terms, the value for PEVANLDII was 8.59 µM.
